The numbers were not newly measured in article PMC11969719, “Rapid synthesis of glycosylated insulins by flow-based peptide synthesis” (Chemical Science, 2025), which cites them from elsewhere.

The conditions of the data set: ref [5c,18]. From the text: To address this issue, we incorporated an isoacyl dipeptide unit at the Thr^A8-Ser^A9 position (superscripts indicate positions in the A-chain), following a previous report,[8b] as the isoacyl dipeptide improves both peptide solubility and synthetic efficiency.[19]

Turning to “A-chain: insulin A-chain, 21-amino acid chain of human insulin”, the “solubility (in words)” value is listed as “poor solubility”.
